From WO2023002944A1

Target: RBD domain derived from the Omicron strain (B.1.1.529 strain) (SARS-CoV-2 Omicron strain (B.1.1.529)) (UniProt P0DTC2)
Experiment: SPR (Biacore T200), as in Example 4: antibody on the chip, RBD as analyte

## S309 (antibody)
  Kd: 2.1 nM
